Test results published in patent US20030186915A1, “Regulatory polynucleotides and uses thereof” (priority 2002, published 2003).

B1: MyoD: transcription factor overexpressed from an expression plasmid (150 ng) (protein, UniProt P15172 1-320, looked up)
Myoblast determination …: MELLSPPLRDVDLTAPDGSLCSFATTDDFYDDPCFDSPDLRFFEDLDPRLMHVGALLKPEEHSHFPAAVHPAPGAREDEHVRAPSGHHQAGRCLLWACKACKRKTTNADRRKAATMRERRRLSKVNEAFETLKRCTSSNPNQRLPKVEILRNAIRYIEGLQALLRDQDAAPPGAAAAFYAPGPLPPGRGGEHYSGDSDASSPRSNCSDGMMDYSGPPSGARRRNCYEGAYYNEAPSEPRPGKSAAVSSLDCLSSIVERISTESPAAPALLLADVPSESPPRRQEAAAPSEGESSGDPTQSPDAAPQCPAGANPNPIYQVL
B2: Cbfa1: transcription factor; gene recovered from an SAOS cDNA library, overexpressed from a mammalian expression vector (protein)
chain: MASNSLFSTVTPCQQNFFWDPSTSRRFSPPSSSLQPGKMSDVSPVVAAQQQQQQQQQQQQQQQQQQQQQQQEAAAAAAAAAAAAAAAAAVPRLRPPHDNRTMVEIIADHPAELVRTDSPNFLCSVLPSHWRCNKTLPVAFKVVALGEVPDGTVVTVMAGNDENYSAELRNASAVMKNQVARFNDLRFVGRSGRGKSFTLTITVFTNPPQVATYHRAIKVTVDGPREPRRHRQKLDDSKPSLFSDRLSDLGRIPHPSMRVGVPPQNPRPSLNSAPSPFNPQGQSQITDPRQAQSSPPWSYDQSYPSYLSQMTSPSIHSTTPLSSTRGTGLPAITDVPRRISDDDTATSDFCLWPSTLSKKSQAGASELGPFSDPRQFPSISSLTESRFSNPRMHYPATFTYTPPVTSGMSLGMSATTHYHTYLPPPYPGSSQSQSGPFQTSSTPYLYYGTSSGSYQFPMVPGGDRSPSRMLPPCTTTSNGSTLLNPNLPNQNDGVDADGSHSSSPTVLNSSGRMDESVWRPY
B3: EcoRV to BglII fragment: about 142 nucleotides, nucleotides 1673 to 1814 of SEQ ID NO: 1, in luciferase reporter construct (nucleic acid, listed as Homo sapiens)
DNA: ATCTGAAAACCACAGCCGCCAGCACGTGGGAGGTGCCGGAGAGCAGGCTTGGGCCTTGCCTCACACGCCCCCTCTCTCTGGGTCACCTGGGAGTGCCAGCAGCAATTTGGAAGTTTGCTGAGCTAGAGGAGAAGTCTTTGGG
modifications: in luciferase reporter construct

What was measured:
SOST regulatory region = assay: Transactivation of SOST reporter constructs by co-transfected expression plasmids in SAOS cells; type: cell-based, human; settings: factor overexpressed, 48 hrs after transfection
Procedure: To determine whether transfected Cbfa1 could drive further increases in the transcriptional activity of the SOST promoter, the Cbfa1 gene was recovered from an SAOS cDNA library and inserted it into a mammalian expression vector.
To test the effects of the two proteins Cbaf1 and MyoD on transactivitation of the 1.8 kb SOST regulatory region, the following tests were performed. SAOS cells were transfected with 500 ng of either the EcoRV fragment (nucleotides 1673 to 1814 of SEQ ID NO: 1) or 1.8 kb SOST regulatory region (nucleotides 1 to 1841 of SEQ ID NO:1) and the indicated combinations of expression plasmids for MyoD (150 ng) or Cbfa1 (30 ng, 300 ng). pBluescript (Stratagene) was used as needed to bring the DNA total to 1 μg per well, and SEAP (20 ng) was used to normalize for transfection efficiency. Cells were harvested 48 hrs after transfection. Both the SOST-luc and the EcoRV fragment were activated by Cbaf1 and MyoD.

SAOS cells = assay: Luciferase reporter assay of SOST regulatory region constructs, transient transfection; type: cell-based, human; settings: deletion constructs in pGL2-Basic

Molecule | activity of the 1.8 kb SOST regulatory region reporter (SOST-luc) (SOST regulatory region) | activity of the EcoRV fragment reporter (SOST regulatory region) | activity of the 1.8 kb SOST regulatory region reporter (SOST-luc) (SOST regulatory region; listed as Cbaf1) | activity of the EcoRV fragment reporter (SOST regulatory region; listed as Cbaf1) | increase in luciferase activity over the 1.8 kb SOST regulatory region (SAOS cells)
B1 | activated | activated | – | – | –
B2 | increased activity | increased activity | activated | activated | –
B3 | – | – | – | – | almost three fold
